Experimental data from patent US20230365647A1 (published 2023).

Target: T1, Mannose receptor C type 1 on human monocyte-derived dendritic cells (Homo sapiens, UniProt P22897 19-1456)
T1 construct: also called MRC-1
T1 sequence: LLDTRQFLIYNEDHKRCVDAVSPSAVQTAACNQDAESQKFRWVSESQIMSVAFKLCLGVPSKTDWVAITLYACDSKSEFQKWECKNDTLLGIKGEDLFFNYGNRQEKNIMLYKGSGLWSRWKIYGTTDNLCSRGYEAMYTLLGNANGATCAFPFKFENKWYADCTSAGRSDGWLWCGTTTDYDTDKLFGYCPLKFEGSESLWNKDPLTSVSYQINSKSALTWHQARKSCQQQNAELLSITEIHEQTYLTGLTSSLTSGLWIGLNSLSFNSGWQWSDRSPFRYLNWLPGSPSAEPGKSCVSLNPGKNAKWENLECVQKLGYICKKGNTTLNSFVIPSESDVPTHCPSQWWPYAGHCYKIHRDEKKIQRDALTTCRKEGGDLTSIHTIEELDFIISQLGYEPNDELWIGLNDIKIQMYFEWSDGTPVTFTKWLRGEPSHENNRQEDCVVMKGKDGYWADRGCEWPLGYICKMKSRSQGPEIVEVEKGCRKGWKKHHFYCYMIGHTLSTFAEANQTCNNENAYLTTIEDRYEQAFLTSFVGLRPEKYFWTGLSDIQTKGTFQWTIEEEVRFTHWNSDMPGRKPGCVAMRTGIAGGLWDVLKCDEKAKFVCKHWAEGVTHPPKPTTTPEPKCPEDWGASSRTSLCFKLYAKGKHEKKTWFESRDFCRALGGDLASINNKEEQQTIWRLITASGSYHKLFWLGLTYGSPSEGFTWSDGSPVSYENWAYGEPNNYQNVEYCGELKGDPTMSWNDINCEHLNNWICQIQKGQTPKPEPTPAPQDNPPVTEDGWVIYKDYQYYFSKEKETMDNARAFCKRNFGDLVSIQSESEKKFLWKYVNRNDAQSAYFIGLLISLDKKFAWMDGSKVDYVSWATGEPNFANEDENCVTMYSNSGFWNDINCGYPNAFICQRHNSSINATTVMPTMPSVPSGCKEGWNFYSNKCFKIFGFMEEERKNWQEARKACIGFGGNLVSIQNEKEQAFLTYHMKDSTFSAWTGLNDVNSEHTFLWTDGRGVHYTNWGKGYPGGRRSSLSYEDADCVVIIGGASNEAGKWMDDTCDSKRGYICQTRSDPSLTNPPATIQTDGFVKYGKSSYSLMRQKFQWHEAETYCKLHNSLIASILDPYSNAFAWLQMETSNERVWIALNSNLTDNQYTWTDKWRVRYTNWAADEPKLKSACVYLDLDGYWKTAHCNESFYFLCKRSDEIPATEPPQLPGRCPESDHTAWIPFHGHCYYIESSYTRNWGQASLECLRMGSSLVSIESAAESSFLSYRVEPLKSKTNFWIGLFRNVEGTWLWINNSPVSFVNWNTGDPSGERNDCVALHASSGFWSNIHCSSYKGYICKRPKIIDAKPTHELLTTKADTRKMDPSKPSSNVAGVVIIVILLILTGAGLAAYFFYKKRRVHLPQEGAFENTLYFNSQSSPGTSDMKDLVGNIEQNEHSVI
Assay: immunofluorescence co-localization in human DCs

Binder | binding result
Pneumolysin (purified recombinant) (other, also called PLY; Ply) ANKAVNDFILAMNYDKKKLLTHQGESIENRFIKEGNQLPDEFVVIERKKRSLSTNTSDISVTATNDSRLYPGALLVVDETLLENNPTLLAVDRAPMTYSIDLPGLASSDSFLQVEDPSNSSVRGAVNDLLAKWHQDYGQVNNVPARMQYEKITAHSMEQLKVKFGSDFEKTGNSLDIDFNSVHSGEKQIQIVNFKQIYYTVSVDAVKNPGDVFQDTVTVEDLKQRGISAERPLVYISSVAYGRQVYLKLETTSKSDEVEAAFEALIKGVKVAPQTEWKQILDNTEVKAVILGGDPSSGARVVTGKVDMVEDLIQEGSRFTADHPGLPISYTTSFLRDNVVATFQNSTDYVETKVTAYRNGDLLLDHSGAYVAQYYITWNELSYDHQGKEVLTPKAWDRNGQDLTAHFTTSIPLKGNVRNLSVKIRECTGLAWEWWRTVYEKTDLPLVRKRTISIWGTTLYPQVEDKVEND | binds
LLO (W489F) toxoid (other) KDASAFNKENSISSMAPPASPPASPKTPIEKKHADEIDKYIQGLDYNKNNVLVYHGDAVTNVPPRKGYKDGNEYIVVEKKKKSINQNNADIQVVNAISSLTYPGALVKANSELVENQPDVLPVKRDSLTLSIDLPGMTNQDNKIVVKNATKSNVNNAVNTLVERWNEKYAQAYPNVSAKIDYDDEMAYSESQLIAKFGTAFKAVNNSLNVNFGAISEGKMQEEVISFKQIYYNVNVNEPTRPSRFFGKAVTKEQLQALGVNAENPPAYISSVAYGRQVYLKLSTNSHSTKVKAAFDAAVSGKSVSGDVELTNIIKNSSFKAVIYGGSAKDEVQIIDGNLGDLRDILKKGATFNRETPGVPIAYTTNFLKDNELAVIKNNSEYIETTSKAYTDGKINIDHSGGYVAQFNISWDEINYDPEGNEIVQHKNWSENNKSKLAHFTSSIYLPGNARNINVYAKECTGLAFEWWRTVIDDRNLPLVKNRNISIWGTTLYPKYSNSVDNPIE | no binding (tested: 0.2 µg/ml)
